Molecular target: T1, Recombinant wild-type human ubiquitin (human, UniProt P0CG48 1-76)
T1 construct: ubiquitin, human, wild type; C-terminal residue G76; 15N labelled in some NMR experiments; In the rows of assays a1, a4 and a5 it is covalently linked by G76 to K117 of m1 (the conjugate is m3); also called free ubiquitin; mono-ubiquitin; source: recombinant, purified by anion exchange followed by gel filtration
Assay: NMR titration; 15N ubiquitin (50 μM) titrated with unlabeled JosK117-onlyW87R or its mono-ubiquitinated form to a maximum of 2 equivalents; 20 mM Na phosphate pH 6.5, 2 mM DTT, 25°C
Conditions: both partners purified

B1: W87R mutant of JosK117-only (domain or fragment, UniProt P54252 1-182, looked up)
chain: MESIFHERQEGSLCAQHCLNNLLQGEYFSPVELSSIAHQLDEEERMRMAEGGVTSEDYRTFLQQPSGNMDDSGFFSIQVISNALRVRGLELILFNSPEYQRLRIDPINERSFICNYKEHWFTVRRLGRQWFNLNSLLTGPELISDTYLALFLAQLQQEGYSIFVVRGDLPDCEADQLLQMIR
notes: ataxin-3, N-terminal Josephin domain, amino acids 1-182; K8, 85, 125, 128 and 166 mutated to arginine, and W87R (site 2); also called JosK117-onlyW87R; JosK117-only W87R; source: recombinant; mutant prepared with QuickChange Site-Directed Mutagenesis kit
binding result: binds

Source: article PMC4428445 (Frontiers in Molecular Biosciences, 2015)
